Experimental data as given in patent US9029097 (UNIVERSITE DE MONTREAL, dated 2015).

Biological target: T1, β2AR-GFP10 (human, UniProt P07550 1-413)
T1 construct: whole, on cells; Expressed in HEK293T cells; also called GFP tagged-β2 adrenergic receptor; not shown: GFP10, variant of GFP
Assay: BRET2 kinetics, living cells, 10 µM Iso up to 4 min

B1: QL-Gαi1-122Rluc (other)
chain: MGCTLSAEDKAAVERSKMIDRNLREDGEKAAREVKLLLLGAGESGKSTIVKQMKIIHEAGYSEEECKQYKAVVYSNTIQSIIAIIRAMGRLKIDFGDSARADDARQLFVLAGAAEEGFMTAESGGGGSMTSKVYDPEQRKRMITGPQWWARCKQMNVLDSFINYYDSEKHAENAVIFLHGNAASSYLWRHVVPHIEPVARCIIPDLIGMGKSGKSGNGSYRLLDHYKYLTAWFELLNLPKKIIFVGHDWGACLAFHYSYEHQDKIKAIVHAESVVDVIESWDEWPDIEEDIALIKSEEGEKMVLENNFFVETMLPSKIMRKLEPEEFAAYLEPFKEKGEVRRPTLSWPREIPLVKGGKPDVVQIVRNYNAYLRASDDLPKMFIESDPGFFSNAIVEGAKKFPNTEFVKVKGLHFSQEDAPDEMGKYIKSFVERVLKNEQSGGGGSLAGVIKRLWKDSGVQACFNRSREYQLNDSAAYYLNDLDRIAQPNYIPTQQDVLRTRVKTTGIVETHFTFKDLHFKMFDVGGLRSERKKWIHCFEGVTAIIFCVALSDYDLVLAEDEEMNRMHESMKLFDSICNNKWFTDTSIILFLNKKDLFEEKIKKSPLTICYPEYAGSNTYEEAAAYIQCQFEDLNKRKDTKEIYTHFTCATDTKNVQFVFDAVTDVIIKNNLKDCGLF
notes: unable to hydrolyse GTP; also called Rluc-tagged constitutively active Q204L-Gαi1 mutant
B1: binds.
